Results taken from a protein production outcome set (Wang et al. 2014).

Assay: label from the status in PepcDB records

Sequence	protein production
NNINVITDQMGNLDIKSNDNINQNTQNSNVASDLNLLTQNKYLENILMMNTYGVNYDHLFLPQNVAYLAAQQLSNNIMNNRNQINAAYTSQQYPNQSIPIKNIYDQSHLKYQQNSSSWRPPLNNGNIYDGVKSNPMGLHILQNGIDLYTNVDSNSVTSAINFDKYDSIPVSVTGPDYSATNVIENFDELKLDPTIRNNILLASYQRPTPIQKNAIPAILEHRDIMACAQTGSGKTAAFLIPIINHLVCQDLNQQRYSKTAYPKCLILAPTRELAIQILSESQKFSLNTPLRSCVVYGGADTHSQIREVQMGCHLLVATPGRLVDFIEKNKISLEFCKYIVLDEADRMLDMGFEPQIRKIIEESNMPSGINRQTLMFSATFPKEIQKLAADFLYNYIFMTVGRVGSTSDSIKQEIIYMTDVEKLNYLKNIFNTTAPNTLILIFVETKKGADSLARFLLSKGYPVSSIHGDRSQVEREAALSMFRNGQCPILVATAVAARGLDIPNVKHVINYDLPSDIEEYVHRIGRTGRLGNHGRATSFYVDKNNNIAIDLVDLLKEANQIVPQWLSALADELKRNSTMGSNNKRHNQRRYKNGNFGGRDYRQGPSNVNMNSGVNPDYFISGSVAPRHAKLNNGNYFPRSNELHDQHQKQNNNNNQVISNTFHTGISASHLIPGYATFNRQQAPLHFIPHQTNNTQFLSSSGQMALYNRMQNSGHMAPNQRFPNEPIHHQQEQLPITYNFSKNLPYLGQSYSGHNNNNNNNNNTSKINDSDSCYFGNKTPR	not failed
NNNSKINLFCVPSAGSSASIFSAWDKTSAENLKVIALEYPGHGRKIQQSLSHDPDFLAHQFSLEILAYGNTPYVLFGHSVGASLIWKIEEKLKLLHADHNLILKIVSARPSPLFQNLIHNYSHLTDEQMIKELRLYNNFPDEILNNASALNFFLPIIKNDFILSDNMLKKPIFKSSVPLMSVYGEADPYIKNHNIMESWSTYTNKWLGAHQFSGDHFYFLDTTILQKMLHLIQEKIY	failed
NNVIGALCVFQDISELVGIKELNERFQKILETSHDLICFIDENRKISYINPTYEKCLNIKSEDVLGKDLMKISPD	failed
NPDYVEVDRILEVAHTKDAETGEEVTHYLVKWCSLPYEESTWELEEDVDPAKVKEFESLQV	not failed
NSAAIQEMNREVEAAAKRTSPVFLTGEAGSPFETVARYFHKNGTPWVSPARVEYLIDMPMELLQKAEGGVLYVGDIAQYSRNIQTGITFIIGKAERCRVRVIASCSYAAGSDGISCEEKLAGLFSESVVRIPPLS	failed
NSDVPENTHLVSKEVQAAFNAKYPQAKDVEWELKGDYAVADFYWDGGEHSAWFNPLSAAWYMTETDVRYENLPEPVLAAHKAGKYADWRVDDVDKLTREGMETLYVIEVEKGESELDLFYSSTGILVKTVVDTGHEEDYDDYLPQPDANGIIAIVKQKYPNATIVEIEREKGLQEVTILDENKEKEVYFNERNEWMGTSWDVQVANLPEAVKKSVMEKYSDYVIDDADYVVTPDNEWYILDLENKQIDKELKVKVDKDGVWL	not failed
NTAPSLTVPECAICLQTCVHPVSLPCKHVFCYLCVKGASWLGKRCALCRQEIPEDFLD	not failed
NVGVFVLMHGDSTASSMLKTAQELLGTSIGTAMNMPLTMEVQTMYEQLRNQVITQKESLNNGILLLTDMGSLNSFGNMLFEETGIRTKAITMTSTMIVLEAIRMASVGRSLEDIYQNIQLSFESVVREQFRSSLQK	not failed
NVRVITDENWRELLEGDWMIEFYAPWCPACQNLQPEWESFAEWGEDLEVNIAKVDVTEQPGLSGRFIINALPTIYHCKDGEFRRYQGPRTKKDFINFISDKEWKSIEPVSSWF	not failed
PATPKKIKKEKKVPKLPRKDYWQAAMVIIISSIVLIASLFMISPLSRQKEITVSGNKNAIESQLIEELGIKKSDYLTTLLFQANRFERNLKSKDKWVKEAKLVYHFPNHFTLRVKEYRIIAYRQTDKGYVPILENGTRVDTVNASELPGSFVTINLDQEKEVRELVQKLAKLDKSLVGSIKVISSVNSSSTKDLLLLEMKDNNSVRVPLSEIDTKLPYYSKIKKNLTDGSIVDMEVGIYSTTADIEASIAEHKTTATTESSENS	failed
PCHHRITLDEFYQLFTNNKNIHLIDVRSTKEHQIQNIGGIVLPLDELPQRLHELNPNRLIILYCQSGTRSKMALDILLKAGFASVKYIENGLKGVTDNYNKDMPQ	failed
PEAERSTISLTRLHATIQNAPGVLGLVCTIIGEAGGNIVNLRMHHRQSDFFDTDIDVEVRDAKHLTNIQAALRACPSVETVDRTR	failed
PEKLPYLVELSPDGSDSRDKPKLYRLQLSVTEVGTEKFDDNSIQLFGPGIQPHHCDLTNMDGVVTVTPRSMDAETYVDGQRISETTMLQSGMRLQFGTSHVFKFVDP	not failed
